The results in this text go back to US20250388669A1 (published 2025).

Test [1] has as its target T1, B7H3 (human, UniProt Q5ZPR3 29-466, limits assumed).
T1 sequence (looked up): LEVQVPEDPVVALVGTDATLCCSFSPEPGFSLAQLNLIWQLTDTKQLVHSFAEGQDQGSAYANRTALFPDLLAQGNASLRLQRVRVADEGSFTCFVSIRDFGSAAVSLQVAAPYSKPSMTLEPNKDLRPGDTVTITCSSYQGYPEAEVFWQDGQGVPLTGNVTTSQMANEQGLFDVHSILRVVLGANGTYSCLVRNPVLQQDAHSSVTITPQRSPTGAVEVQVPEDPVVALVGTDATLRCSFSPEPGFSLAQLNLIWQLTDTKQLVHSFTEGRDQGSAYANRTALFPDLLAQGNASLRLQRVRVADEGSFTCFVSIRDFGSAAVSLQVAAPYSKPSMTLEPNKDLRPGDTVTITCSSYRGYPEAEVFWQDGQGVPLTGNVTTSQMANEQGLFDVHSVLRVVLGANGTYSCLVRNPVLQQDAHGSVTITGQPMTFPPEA
Briefly: ELISA or FCM (Example 2). On the technique in general: An ELISA detects its analyte on a solid surface through an enzyme-linked reagent.

Test [2] addresses T2, B7H3 (human, UniProt Q5ZPR3 29-466, limits assumed).
T2 construct: Tumor associated antigen; also called huB7H3
T2 sequence (looked up): T1 sequence (looked up)
Description: FCM or ELISA.

B1: Ly2368 (other)
chain 1: QVQLVQSGAEVKKPGASVKVSCKASGYTFTSYVMHWVRQKPGQGLEWIGYINPYNEGTESTDKFKGRATMTSDKSTSTVYMELSSLRSEDTAVYYCASIYYGYEGTYFGVWGQGTLVTVSSASTKGPSVFPLAPSSKSTSGGTAALGCLVKDYFPEPVTVSWNSGALTSGVHTFPAVLQSSGLYSLSSVVTVPSSSLGTQTYICNVNHKPSNTKVDKKVEPKSCEVQLVESGGGLVQPGGSLRLSCAASGFTFSTYAMNWVRQAPGKGLEWVGRIRSKYNNYATYYADSVKGRFTISRDDSKNSLYLQMNSLKTEDTAVYYCVRHGNFGNSYVSWFAYWGQGTLVTVSSGGGGSDKTHTCPPCPAPEAAGPSVFLFPPKPKDTLMISRTPEVTCVVVDVSHEDPEVKFNWYVDGVEVHNAKTKPREEQYNSTYRVVSVLTVLHQDWLNGKEYKCKVSNKALPAPIEKTISKAKGQPREPQVYTLPPSREEMTKNQVSLWCLVKGFYPSDIAVEWESNGQPENNYKTTPPVLDSDGSFFLYSKLTVDKSRWQQGNVFSCSVMHEALHNHYTQKSLSLSPGGGGGSGGGGSGGGGSGGGGSQVQLVQSGAEVKKPGASVKVSCKASGYTFAGFEMHWVRQAPGQGLEWMGAIDPKTGGTDYNQKFKDRVTMTRDTSISTAYMELSRLRSDDTAVYYCARDLGYFDVWGQGTLVTVSS
chain 2: QVQLVQSGAEVKKPGASVKVSCKASGYTFTSYVMHWVRQKPGQGLEWIGYINPYNEGTESTDKFKGRATMTSDKSTSTVYMELSSLRSEDTAVYYCASIYYGYEGTYFGVWGQGTLVTVSSASTKGPSVFPLAPSSKSTSGGTAALGCLVKDYFPEPVTVSWNSGALTSGVHTFPAVLQSSGLYSLSSVVTVPSSSLGTQTYICNVNHKPSNTKVDKKVEPKSCQAVVTQEPSLTVSPGGTVTLTCRSSTGAVTTSNYANWVQQKPGQAPRGLIGGTNKRAPWTPARFSGSLLGGKAALTITGAQAEDEADYYCALWYSNLWVFGGGTKLTVLGGGGSDKTHTCPPCPAPEAAGPSVFLFPPKPKDTLMISRTPEVTCVVVDVSHEDPEVKFNWYVDGVEVHNAKTKPREEQYNSTYRVVSVLTVLHQDWLNGKEYKCKVSNKALPAPIEKTISKAKGQPREPQVYTLPPSREEMTKNQVSLSCAVKGFYPSDIAVEWESNGQPENNYKTTPPVLDSDGSFFLVSKLTVDKSRWQQGNVFSCSVMHEALHNRFTQKSLSLSPGGGGGSGGGGSGGGGSGGGGSDIQMTQSPSSLSASVGDRVTITCRASQDIRSNLNWYQQKPGGAVKLLIYYTSRLHSGVPSRFSGSGSGTDYTLTISSLQPEDFATYFCQQSEKLPRTFGGGTKVEIR
light: EIVLTQSPATLSLSPGERATLSCRASSSVSYMHWYQQKPGQAPRPWIYATSNLASGIPARFSGSRSGTDYTLTISSLEPEDFAVYYCQQWSSNTLTFGGGTKVEIKRTVAAPSVFIFPPSDEQLKSGTASVVCLLNNFYPREAKVQWKVDNALQSGNSQESVTEQDSKDSTYSLSSTLTLSKADYEKHKVYACEVTHQGLSSPVTKSFNRGEC
notes: Tri-specific antibody: B7H3 Fabs, central CD3 Fv, terminal CD137 Fv; It has no flexible linker
Regarding B1, the binding result with B7H3 [1] is listed as “binds”.

B2: Ly2385 (other)
chain 1: QVQLVQSGAEVKKPGASVKVSCKASGYTFTSYVMHWVRQKPGQGLEWIGYINPYNEGTESTDKFKGRATMTSDKSTSTVYMELSSLRSEDTAVYYCASIYYGYEGTYFGVWGQGTLVTVSSASTKGPSVFPLAPSSKSTSGGTAALGCLVKDYFPEPVTVSWNSGALTSGVHTFPAVLQSSGLYSLSSVVTVPSSSLGTQTYICNVNHKPSNTKVDKKVEPKSCGGSEVQLVESGGGLVQPGGSLRLSCAASGFTFSTYAMNWVRQAPGKGLEWVGRIRSKYNNYATYYADSVKGRFTISRDDSKNSLYLQMNSLKTEDTAVYYCVRHGNFGNSYVSWFAYWGQGTLVTVSSGGGGSDKTHTCPPCPAPEAAGPSVFLFPPKPKDTLMISRTPEVTCVVVDVSHEDPEVKFNWYVDGVEVHNAKTKPREEQYNSTYRVVSVLTVLHQDWLNGKEYKCKVSNKALPAPIEKTISKAKGQPREPQVYTLPPSREEMTKNQVSLWCLVKGFYPSDIAVEWESNGQPENNYKTTPPVLDSDGSFFLYSKLTVDKSRWQQGNVFSCSVMHEALHNHYTQKSLSLSPGGGGGSGGGGSGGGGSGGGGSQVQLVQSGAEVKKPGASVKVSCKASGYTFAGFEMHWVRQAPGQGLEWMGAIDPKTGGTDYNQKFKDRVTMTRDTSISTAYMELSRLRSDDTAVYYCARDLGYFDVWGQGTLVTVSS
chain 2: QVQLVQSGAEVKKPGASVKVSCKASGYTFTSYVMHWVRQKPGQGLEWIGYINPYNEGTESTDKFKGRATMTSDKSTSTVYMELSSLRSEDTAVYYCASIYYGYEGTYFGVWGQGTLVTVSSASTKGPSVFPLAPSSKSTSGGTAALGCLVKDYFPEPVTVSWNSGALTSGVHTFPAVLQSSGLYSLSSVVTVPSSSLGTQTYICNVNHKPSNTKVDKKVEPKSCGGSQAVVTQEPSLTVSPGGTVTLTCRSSTGAVTTSNYANWVQQKPGQAPRGLIGGTNKRAPWTPARFSGSLLGGKAALTITGAQAEDEADYYCALWYSNLWVFGGGTKLTVLGGGGSDKTHTCPPCPAPEAAGPSVFLFPPKPKDTLMISRTPEVTCVVVDVSHEDPEVKFNWYVDGVEVHNAKTKPREEQYNSTYRVVSVLTVLHQDWLNGKEYKCKVSNKALPAPIEKTISKAKGQPREPQVYTLPPSREEMTKNQVSLSCAVKGFYPSDIAVEWESNGQPENNYKTTPPVLDSDGSFFLVSKLTVDKSRWQQGNVFSCSVMHEALHNRFTQKSLSLSPGGGGGSGGGGSGGGGSGGGGSDIQMTQSPSSLSASVGDRVTITCRASQDIRSNLNWYQQKPGGAVKLLIYYTSRLHSGVPSRFSGSGSGTDYTLTISSLQPEDFATYFCQQSEKLPRTFGGGTKVEIR
light: B1 light
notes: Tri-specific antibody: B7H3 Fabs, central CD3 Fv, terminal CD137 Fv; Flexible linker is G2S
Consider B2, for which the binding result with B7H3 [1] is “binds”.

B3: Ly1965 (bispecific antibody)
chain 1: QVQLVQSGAEVKKPGASVKVSCKASGYTFTSYVMHWVRQKPGQGLEWIGYINPYNEGTESTDKFKGRATMTSDKSTSTVYMELSSLRSEDTAVYYCASIYYGYEGTYFGVWGQGTLVTVSSASTKGPSVFPLAPSSKSTSGGTAALGCLVKDYFPEPVTVSWNSGALTSGVHTFPAVLQSSGLYSLSSVVTVPSSSLGTQTYICNVNHKPSNTKVDKKVEPKSCGGGGSGGGGSGGGGSGGGGSEVQLVESGGGLVQPGGSLRLSCAASGFTFSTYAMNWVRQAPGKGLEWVGRIRSKYNNYATYYADSVKGRFTISRDDSKNSLYLQMNSLKTEDTAVYYCVRHGNFGNSYVSWFAYWGQGTLVTVSSGGGGSDKTHTCPPCPAPEAAGPSVFLFPPKPKDTLMISRTPEVTCVVVDVSHEDPEVKFNWYVDGVEVHNAKTKPREEQYNSTYRVVSVLTVLHQDWLNGKEYKCKVSNKALPAPIEKTISKAKGQPREPQVYTLPPSREEMTKNQVSLWCLVKGFYPSDIAVEWESNGQPENNYKTTPPVLDSDGSFFLYSKLTVDKSRWQQGNVFSCSVMHEALHNHYTQKSLSLSPG
chain 2: QVQLVQSGAEVKKPGASVKVSCKASGYTFTSYVMHWVRQKPGQGLEWIGYINPYNEGTESTDKFKGRATMTSDKSTSTVYMELSSLRSEDTAVYYCASIYYGYEGTYFGVWGQGTLVTVSSASTKGPSVFPLAPSSKSTSGGTAALGCLVKDYFPEPVTVSWNSGALTSGVHTFPAVLQSSGLYSLSSVVTVPSSSLGTQTYICNVNHKPSNTKVDKKVEPKSCGGGGSGGGGSGGGGSGGGGSQAVVTQEPSLTVSPGGTVTLTCRSSTGAVTTSNYANWVQQKPGQAPRGLIGGTNKRAPWTPARFSGSLLGGKAALTITGAQAEDEADYYCALWYSNLWVFGGGTKLTVLGGGGSDKTHTCPPCPAPEAAGPSVFLFPPKPKDTLMISRTPEVTCVVVDVSHEDPEVKFNWYVDGVEVHNAKTKPREEQYNSTYRVVSVLTVLHQDWLNGKEYKCKVSNKALPAPIEKTISKAKGQPREPQVYTLPPSREEMTKNQVSLSCAVKGFYPSDIAVEWESNGQPENNYKTTPPVLDSDGSFFLVSKLTVDKSRWQQGNVFSCSVMHEALHNRFTQKSLSLSPG
light: B1 light
notes: B7H3/CD3: two B7H3 Fabs, central CD3 Fv
For B3, in the test with B7H3 [2], the binding result is listed as “binds”.

B4: Ly2384 (other)
chain 1: QVQLVQSGAEVKKPGASVKVSCKASGYTFTSYVMHWVRQKPGQGLEWIGYINPYNEGTESTDKFKGRATMTSDKSTSTVYMELSSLRSEDTAVYYCASIYYGYEGTYFGVWGQGTLVTVSSASTKGPSVFPLAPSSKSTSGGTAALGCLVKDYFPEPVTVSWNSGALTSGVHTFPAVLQSSGLYSLSSVVTVPSSSLGTQTYICNVNHKPSNTKVDKKVEPKSCGGGSEVQLVESGGGLVQPGGSLRLSCAASGFTFSTYAMNWVRQAPGKGLEWVGRIRSKYNNYATYYADSVKGRFTISRDDSKNSLYLQMNSLKTEDTAVYYCVRHGNFGNSYVSWFAYWGQGTLVTVSSGGGGSDKTHTCPPCPAPEAAGPSVFLFPPKPKDTLMISRTPEVTCVVVDVSHEDPEVKFNWYVDGVEVHNAKTKPREEQYNSTYRVVSVLTVLHQDWLNGKEYKCKVSNKALPAPIEKTISKAKGQPREPQVYTLPPSREEMTKNQVSLWCLVKGFYPSDIAVEWESNGQPENNYKTTPPVLDSDGSFFLYSKLTVDKSRWQQGNVFSCSVMHEALHNHYTQKSLSLSPGGGGGSGGGGSGGGGSGGGGSQVQLVQSGAEVKKPGASVKVSCKASGYTFAGFEMHWVRQAPGQGLEWMGAIDPKTGGTDYNQKFKDRVTMTRDTSISTAYMELSRLRSDDTAVYYCARDLGYFDVWGQGTLVTVSS
chain 2: QVQLVQSGAEVKKPGASVKVSCKASGYTFTSYVMHWVRQKPGQGLEWIGYINPYNEGTESTDKFKGRATMTSDKSTSTVYMELSSLRSEDTAVYYCASIYYGYEGTYFGVWGQGTLVTVSSASTKGPSVFPLAPSSKSTSGGTAALGCLVKDYFPEPVTVSWNSGALTSGVHTFPAVLQSSGLYSLSSVVTVPSSSLGTQTYICNVNHKPSNTKVDKKVEPKSCGGGSQAVVTQEPSLTVSPGGTVTLTCRSSTGAVTTSNYANWVQQKPGQAPRGLIGGTNKRAPWTPARFSGSLLGGKAALTITGAQAEDEADYYCALWYSNLWVFGGGTKLTVLGGGGSDKTHTCPPCPAPEAAGPSVFLFPPKPKDTLMISRTPEVTCVVVDVSHEDPEVKFNWYVDGVEVHNAKTKPREEQYNSTYRVVSVLTVLHQDWLNGKEYKCKVSNKALPAPIEKTISKAKGQPREPQVYTLPPSREEMTKNQVSLSCAVKGFYPSDIAVEWESNGQPENNYKTTPPVLDSDGSFFLVSKLTVDKSRWQQGNVFSCSVMHEALHNRFTQKSLSLSPGGGGGSGGGGSGGGGSGGGGSDIQMTQSPSSLSASVGDRVTITCRASQDIRSNLNWYQQKPGGAVKLLIYYTSRLHSGVPSRFSGSGSGTDYTLTISSLQPEDFATYFCQQSEKLPRTFGGGTKVEIR
light: B1 light
notes: Tri-specific antibody: B7H3 Fabs, central CD3 Fv, terminal CD137 Fv; Flexible linker is G3S
In the case of B4, the binding result in the test with B7H3 [1] is “binds”.
